In paper PMC10592561:

Biological target: Complement C3b, human, purified (human) (UniProt P01024)
Test: SPR

Row | Kd [µM] | Substance
1 | 64.4 | Factor H CCP1-4 variant R166Q (domain or fragment)
2 | 6.8 | Factor H CCP1-4, wild type (domain or fragment)
